T1: His-tagged CXorf67, recombinant (human, UniProt Q86X51 1-503)
T1 sequence (looked up): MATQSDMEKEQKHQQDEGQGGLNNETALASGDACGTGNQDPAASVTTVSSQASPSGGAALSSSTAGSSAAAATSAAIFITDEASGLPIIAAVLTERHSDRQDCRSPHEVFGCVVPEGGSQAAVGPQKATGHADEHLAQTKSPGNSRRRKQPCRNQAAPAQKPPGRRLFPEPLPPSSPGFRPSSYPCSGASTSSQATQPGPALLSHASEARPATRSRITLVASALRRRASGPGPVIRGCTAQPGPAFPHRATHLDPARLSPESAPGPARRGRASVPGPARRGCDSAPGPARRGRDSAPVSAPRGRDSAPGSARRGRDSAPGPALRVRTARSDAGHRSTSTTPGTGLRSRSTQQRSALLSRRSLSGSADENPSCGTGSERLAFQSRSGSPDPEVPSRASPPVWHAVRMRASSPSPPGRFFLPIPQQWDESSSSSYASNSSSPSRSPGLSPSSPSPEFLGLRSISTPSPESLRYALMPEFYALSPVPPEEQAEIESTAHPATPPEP

B1: GST-tagged PALB2 WD40 domain (domain or fragment, UniProt Q86YC2 853-1186, looked up)
chain: GNLQLVSELKNPSGSCSVDVSAMFWERAGCKEPCIITACEDVVSLWKALDAWQWEKLYTWHFAEVPVLQIVPVPDVYNLVCVALGNLEIREIRALFCSSDDESEKQVLLKSGNIKAVLGLTKRRLVSSSGTLSDQQVEVMTFAEDGGGKENQFLMPPEETILTFAEVQGMQEALLGTTIMNNIVIWNLKTGQLLKKMHIDDSYQASVCHKAYSEMGLLFIVLSHPCAKESESLRSPVFQLIVINPKTTLSVGVMLYCLPPGQAGRFLEGDVKDHCAAAILTSGTIAIWDLLLGQCTALLPPVSDQHWSFVKWSGTDSHLLAGQKDGNIFVYHYS

Test [1] deals with T1, His-tagged CXorf67, recombinant. The experiment in a line: pull-down.
In test [2] the target is B1. The experiment in a line: pull-down.

Ends that are not written are not given here. * marks the point of attachment. Biotin = O=C1N[C@H]2[C@H](CS[C@H]2CCCCC(=O)*)N1

As to B1, the binding result in test [1] was “binds”. Take Biotin-GGPIPQQWDESSSSS [biotinylated WT C67 (420-432) peptide]: in test [2], the binding result is reported as “binds”.

The record behind these values is PMC8455074 (Cancer cell, 2020).
